Measured values taken from a protein production outcome set (Wang et al. 2014).

Assay: label from the status in PepcDB records

Sequence | protein production
MSDAAEIRMDAGALNAFLHRAFPEVDPEQMPQVLEVEAGRALLKLPYASRQLRPGGVISGPTMMSLADTAAYAMILARIGEVALSVTTSLNIHFLRGCKPGDLYAEATLLKLGRRIATVDVLMWTQGRERAAAKATVAYAIP | failed
MELWLVRHGETLWNREGRLLGWTDLPLTAEGEAQARRLKGALPSLPAFSSDLLRARRTAELAGFSPRLYPELREIHFGALEGALWETLDPRYKEALLRFQGFHPPGGESLSAFQERVFRFLEGLKAPAVLFTHGGVVRAVLRALGEDGLVPPGSAVAVDWPRRVLVRLALDGEEATG | not failed
MNRHLIHRRDILDTLVADLQAQQPDHIAVTGDLVNIALVNEFAPARQWLESVGPADRVSLVPGNHDAYVRSTAHRFAETFPDYISGDDATPGFPYLRRREAIAIIGVSSAVPTAPLRATGWLGAPQRAALEALLQSLAGERVFKVLLIHHPLQSRSRHKRLTDAADLIALLQRHPVDLVLHGHDHVHATVRIDTPFGAIPVVGVPSASAMNDRHRPSAAYNLFKISEGNDGWRCLEHHHHHH | failed
MDYMERPKLGLIVREPYASLIVDGRKVWEIRRRKTRHRGPLGIVSGGRLIGQADLVGVEGPFSVEELLAHQEKHLAEEAFLRAYAKDEPLYAWVLENAFRYEKPLHVPRRPGRVMFVDLSEVRW | not failed
MDQLFRYPLHQIPLVAMAIIIALSVHEFAHAYVAYKFGDDTAKRQGRLTLSPMAHLDPIGMIAVLILGFGWARRVPVNPYNFKRPRLAGILVSIAGPISNLILSAIGLIIWYSLLTFGVLDSIPFAVADTLAQFFQIFIMLNIVLLVFNLLPIPPLDGYRVVEDLAPTNIRAKMTQYEKYGAIALLILVITPLSNYTIQPIFSVVIPYVFAFLNSIIAPIFGLL | failed
MLTGNKPAVQRRFIGLLMLSVLVAGCSSNPLANFAPGYPPTIEPAQPAVSPPTSQDPAGAVRPLSGHPRAALFDNGTRQLVALRPGADSAAPASIMVFDDVHVAPRVIFLPGPAAALTSDDHGTAFLAARGGYFVADLSSGHTARVNVADAAHTDFTAIARRSDGKLVLGSADGAVYTLAKNPAVDPASGAATVASRTKIFARVDALVTQGNTTVVLDRGQTSVTTIGADGHAQQALRAGQGATTMAADPLGRVLIADTRGGQLLVYGVDPLILRQAYPVRQAPYGLAGSRELAWVSQTASNTVIGYDLTTGIPVEKVRYPTVQQPNSLAFDETSDTLYVVSGSGAGSRFIEHAAGTR | failed
MNIQIILSLIFSMILMACTTSSPQKDLSRICDSSGCSDRSGNYVSNHSSAASSDEEARIRVLEDVARQDPRAAYDLGLRYFRGDGVRQDSYQALQWMREAAERGDLNAQKALGRLYLTGLEEMGADYREAEKWLRIAASRGDKESEQLLVEAAAFASEERRSGEIYHRWVNRWQPVFYQRWYYGYPYLGTWRGNYWYY | failed
MLRSTVIVTAHRRKAFIKDAIESVMENSLKPTEIIVVKNFKDYQIDSFLETYHVKNIYTDDETLGGKISLGIYQSSGDILFFLDDDDLFSKDKIREVIYKFSKYDIGFYHNAQEVIHNKLTGSNLSTDNQRFMYYTSIDTRRLKELLYKFKAGFNGSSIVISRDLAMRCVDLLKNVNISVDTFLLFCAVENNLPIMIDFRKLTYYRIIMSQNSNTEVNDKLFKMLYEDALYFKQIFSSKALRDFIEMSIIQHDFLYKIISKKEISKRDALISMVKMLRYSLKYPNKWNFFLQGLSLLSVFSAEKSRSLYLKKVRSNSMLSILEHHHHHH | not failed
MSRSRHCPAVLIAAPASGQGKTTVTAALARLHRNLGRKVRVFKCGPDFLDPMILERASGAPVYQLDLWMIGAEESRRLLWEAAGEADLILIEGVMGLFDGTPSSADLARHFGVPVLAVIDGTAMAQTFGALALGLARYQADLPFAGVLANRVGSLRHAQLLEGSLTEGLRWYGGLSRERGIELPSRHLGLVQASELNDLDTRLDAAAEALGASCDAALPPPVSFAEPEPQACVASLAGVRIGVARDEAFAFIYGANLDLLRNLGAQLVFFSPLHDHELPAVDSLYLPGGYPELHHHALAANAPMCEAIRAHHAQGKPLLAECGGMLYLLDALTDVAGERAELLGLLPGEATMQKRLAALALQAVELPEGTLRGHTYHHSLTSTALEPIARGLSPNGGRGNEAVYRLGRLTASYVHFYFPSCPDAAAALLRP | failed
MARVARWFLAVETVAFLGAAGVHAGVLWRGHEHARAATAETVIGVVLGLALLAAAARPRWSRRAAIGAQAFALLGTAVGLFTIAIGVGPRTAPDLAFHVAIVATLVVGLLRLARPTAGLREATP | failed
MTLNIYTEEWAPISFSVDGKPDGLAVQVVQEIQKRIDNQDPIKVVPWARGWKIITEQPNTVLFTMTRTAERERMFSLIGPVAVGTTNFYALKNSNLKINLEHHHHHH | not failed
MSVSGPCLSCDTPGCTMQAHSDSDESFFERAWAVVAQIPVGRVTTYGDIAAHLGRRGAARIVGWALKDAVGGDLPCHRVVNRNGVLTGRRHFETPHVMAERLRSEGVTFVAEDQVDLDAHRWRPGEAE | failed
MEKLGQFIINHWQLWLAFVVVVFLIFINEILSQRKKAKEVSPQSLVDLMNNGNAIVIDIRDKESFKNGHIINSMNVNPDDFEQQKMSKYKDKPIILVCARGLQSPTLAMKIRNQGYQPLVLSGGIQAWQNADLPLVKGK | failed
MILMSNEIKNPKKRRKLVEYANGRSLEEINGTVKVPKNIGFWKALFMYSGPGALVAVGYMDPGNWSTSITGGQNFQYMLMSIILISSLIAMLLQYMAAKLGIVSQMDLAQAIRARTSKSLGIVLWILTELAIMATDIAEVIGAAIALYLLFHIPLAIAVFITVLDVLLLLLLTKIGFRKIEAIVVCLIMVILVVFVYQVALSNPNWGAVFSGLVPTTKAFETSPTIGGMTPLSGSLGIIGATVMPHNLYLHSAVSQTREIDHNDEEDVARTLRFSTWDSNIQLSFAFIVNSLLLVMGVAVFKSGAVQDPSFFGLFHALNDTSTLSNGILIGVAKTGVLSTLFAVALLASGQNSTITGTLTGQVIMEGFIHMRMPLWARRLITRLISVVPVLICVMITSGKGDLQEHEALNQLMNNSQVFLAFALPFSMIPLLMMTDSRVEMGDRFKNSWAVKILGWISVIFLTYLNMTGLPNSITAFFGANPSAGEVELAHIIAYMLVAVVLALLAWTVFELHKGNQRYELEMRSKAEAKEEA | failed
MSDMFLPARMRKLKIITLDQYSDSVVRSLHEEGVTQIDDISERIQQDAEWRQILKPSRATPYTGRVSSLLMKTSGILDFLGSVAAEEKGLRDTIREFINPPIFEKREVEELDTESLIERAEETLGRVESETRVMEEKLNELDSERSAVESSLSVAEKLKDFDIDFSDLQDSEYITGIAGRITAENLPELRDKLADITDELVISDREGENKAERILIIVTLKKHADSIASVLRRMEFERFEISELQGRPSEIISSSKTRLEEISRERKEIISKLRDINAEWEDELLVLREQLEIEKERNEVFSLFGETRKTVMLEAWVPLKEADRVIAVVEESSEGTALTDLEDPDPEEVPVLLDNPRFAKPYETFVEMYSPLKYNEIDPTIFMAFVFPFFFGFCLTDAGYGIIDALIGFILYRGLGKVNNFMRNFGIIMMSCGVWAFILGMVTNGFIGDFFPRFFNITLPTVIPAIDAFVNPQNILIMALTVGVLHINFGLILGARNNIRLGNMREALGSQIVWLILELGIILYLVGGMIFGAPLIILAFAMLLYYNGLFGLMDVSGFLGTLLSYARLLALCLSTGGIAMTVNILTGLSYEMIPVIGVVLAPIIFVFGHIANNAFQSLGAFINSLRLHYVEFFAQFYMGGKNKFNAFRAERNFTKIRR | failed
MSMNNSKQLVSPAAALLSNTTCQTENRLSVFFSVIFMTVGILSNSLAIAILMKAYQRFRQKSKASFLLLASGLVITDFFGHLINGAIAVFVYASDKEWIRFDQSNVLCSIFGICMVFSGLCPLLLGSVMAIERCIGVTKPIFHSTKITSKHVKMMLSGVCLFAVFIALLPILGHRDYKIQASRTWCFYNTEDIKDWEDRFYLLLFSFLGLLALGVSLLCNAITGITLLRVKFKSQQHRQGRSHHLEMVIQLLAIMCVSCICWSPFLGYRIILNGKEKYKVYEEQSDFLHRLQWPTLE | failed
MFTETGLKSGRRTMRFARLLLLPLIVIGTLSGCAVNMADIHGFNVISLEQEKELGTKFAAEIEKQYPVYNDPEAQKYVDRLGRRLLTGAREVSFDYVFKVVKDDSVNAFAIPGGRLYVHTGLLKAAQSETEVAAVMAHEISHAVARHGTRQMTQQYGYSLVLSLVLGQNSNMLAQIAGELFGKAGMMSYSRDYENQADFLGVETMSKAGYNPQGMVSFFQKLDTMGQQNPSALTKFFSSHPLTSERIQRVQAEIAQLPPRTYPPVDNTDLQKIRARIKLEHHHHHH | failed
MPRKQLKGETHDQKAQIASAFGEIEQSKIFLDKRSESAAVKMDIADLLKEIIQKQLRKDYDPEVESNIFINPERGDFEVYILKKIVKEVDLPTIEIGLDEVRQIDDSLELGDYYEEGPIKLDDYLTRKSIQIIKQSVQKKVRDLERLAVYEECLEKVGEVVAGEVYQVRPNEVIFTYNTSKDHRVELVLPKSEMMKKDNPRRTPRMKLYVKRIEREKVKVRNDDGTVEEREKPDGGMKVIVSRVDDRFLYKLFESEVPEILDGLIVIKGIARVPGERAKVAVESTSSRIDPVGATVGYRGKRIQSIVKELNNENIDVIYYTDEPQVFIARALQPAKIDPMTVHADMKTRKARVMLKPDQIKYAIGKNGNNIHLAEKLTGYEIDVYRDVIDKSLEDPNDIDIIEFREEFGDDMIYQLLDGGLDTAKKILKGGVEKIEEALLGTQKSEELFVFNKTRKPVKPKERRITDDEKRYWKKIAETIYRTVREQFNDEDLKALLDDSHERSLKGDGIDPEEIRDKETNLEHHHHHH | failed
SQPLLDRSIPDFTAFTTVDDWLSAIKMVQYRDSFLTAGFTSLQLVTQMTSEDLLRIGITLAGHQKKILNSIHSMRVQISQSPTAMA | not failed
YQAIYRRATTYLAMGRGKAAIVDLERVLELKPDFYGARIQRGNILLKQGELEAAEADFNIVLNHDSSN | failed
MALKSHLRACSRPFPRQIGRMRRRNKSLPAAFVSKRLSVLIISRKPEMKALTCMAVLAALVTGSAFAQTPPQTSTRKVDGTDNVYIFRYGGHQSMFVVTPKGVIATDPISYLRPAKPYIDAIKAVTDQPIKYVVYSHHHYDHIAGGQPFKDLGATFIAHRRTKERLLELKKQNALLADVVMPDQVVDDKKSITLGGTTLELNYVGRNHSDNSLVMRLPKEKIVFVVDFAPIESVQFRNIPDNVSPLEYIASLKKLASLDWERMIPGHPNAGGRLGTKKDVEDDIAYMEDLSAEVKKAADAGKCIDTAMKEVKLPKYEKWANYETALPANVERFCYWWGRGY | failed
PRWSVAAATAVTDFCDRLACDRVALGRRHRRRSKVVSLSHSGNFQRSSELVQRIADAMDEAIDQGEPIRMPQDSDNTLTLTAAHQELIHSGVPRAVLTVLLRRDGRVTGAMVLERGGNNPFRDEEVELVEAVAGILGPVLEEKRLNDR | failed
MLVAAQQQGPPMPRPSHLMILALTAAALYIYALASDNTMLALMAKPIPVLALIAWLRSTPVSPYRTWISIGLGFSVLGDILLAIPADLFVFGLAAFLCAHLAYLRGYCGITLRPALPALIFSAITGIALLGVLASNGLGPLLIPVALYALAISAMLWRALACGGVAALGAGLFVFSDSLIGIDRFISPFAAAPYLIILAYWLGQWAIASSVGHRSTDKVLTQSGARRTESC | failed
MFSIVFPVIAPVLIVVAVGFGWARAGRPFDTATVSALGLGLGTPFLLTDVLMSANIAADALAAMGLAALLTLAGMAVGGALTLRLLKLPQAVFLPSMIFGNTGNIALPLCLFAFGDEGLALSIGYFTVVIVIQFSATALISSGERPVPVILRNPVIWTLLVVGTLKAGGIALPGWLADTAHMVGGMCIPVMLLALGVSLARLKVAGLGVALLLGAVKIALGVALGYATVLALDLHGAARGVVLIQSAMPPAVFNYLFAARYNQRPEEVAGLVIVSTGLSVLTMPLLLWGAMADM | failed
